Data taken from patent publication US20040038369A1, “Airway-specific trypsin-like enzymes and method of using the same” (priority 2000, published 2004).

What was measured:
Type in all cases: cell-based
PAR-4 = target: T1, PAR-4 (Homo sapiens, UniProt Q96RI0); test: Calcium influx in PAR-4-expressing insect cells; conditions: AST 2 units/ml; trypsin, thrombin 0.1 to 10 units/mL
T1 construct: expressed in transfected cells; host or cells: Sf9 insect cells infected with recombinant baculovirus VL-PAR (pVL1393)
T1 sequence (Q96RI0 18-385): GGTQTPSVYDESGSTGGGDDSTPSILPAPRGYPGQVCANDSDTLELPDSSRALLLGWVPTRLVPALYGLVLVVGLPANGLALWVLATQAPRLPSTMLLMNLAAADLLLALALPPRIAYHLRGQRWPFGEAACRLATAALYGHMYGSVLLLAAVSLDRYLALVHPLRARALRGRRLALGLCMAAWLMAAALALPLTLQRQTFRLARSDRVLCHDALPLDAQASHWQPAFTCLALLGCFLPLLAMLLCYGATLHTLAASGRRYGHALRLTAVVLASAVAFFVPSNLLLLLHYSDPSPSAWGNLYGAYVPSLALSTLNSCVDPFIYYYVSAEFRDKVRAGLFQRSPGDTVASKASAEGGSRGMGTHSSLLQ
Protocol: (§1) The above-obtained recombinant baculovirus VL-PAR for expressing the PAR was used to infect 1.0×10^7 Sf9 cells sowed on a 75 cm^2 flask at an MOI=2, and was then left and stationally cultured at 27° C. for 40 hours. After the culture, the infected cells were recovered and then subjected to a calcium influx experiment to-confirm the function of the PAR.
(§2) The recovered infected cells (about 5×10^6 cells) were once washed with HEPES-Tyrode buffer solution-Ca^2+ (−) pH 7.4, and then suspended in 5 mL of HEPES-Tyrode buffer solution (containing Fura2-AM, 1 μg/mL) to load the Fura2-AM on the cells at 27° C. for 30 minutes. The suspension was centrifuged at 800 rpm at room temperature for 5 minutes to recover the cells. The cells were twice washed with HEPES-Tyrode buffer solution-Ca^2+ (−) pH 7.4 and then resuspended in 5 mL of HEPES-Tyrode buffer solution-Ca^2+ (−) pH 7.4. The cell suspension was mixed with 5 μL of 1M CaCl2 to give a final concentration of 1 mM CaCl2, and then incubated in a shaded state at room temperature for 5 minutes. The prepared Fura2-AM-loaded infected cells were dispensed into a 96 well plate in a volume of 100 μL/well, further subjected to the dispensation of HEPES-Tyrode buffer solution-C^2+ (+) pH 7.4 in a volume of 80 μL/well, and then assayed with a Fluorescence Drug Screening System (made by Hamamatsu Photonics Co.). […]

PAR-2 = target: T2, PAR-2 (Homo sapiens, UniProt P55085); test: Calcium influx in PAR-2-expressing insect cells; conditions: AST 2 units/mL; trypsin, thrombin 0.1 to 10 units/mL; SFLLRNamide, SLIGRL 10 to 100 μM
T2 construct: expressed in transfected cells; host or cells: Sf9 insect cells infected with recombinant baculovirus VL-PAR (pVL1393)
T2 sequence (P55085 26-397): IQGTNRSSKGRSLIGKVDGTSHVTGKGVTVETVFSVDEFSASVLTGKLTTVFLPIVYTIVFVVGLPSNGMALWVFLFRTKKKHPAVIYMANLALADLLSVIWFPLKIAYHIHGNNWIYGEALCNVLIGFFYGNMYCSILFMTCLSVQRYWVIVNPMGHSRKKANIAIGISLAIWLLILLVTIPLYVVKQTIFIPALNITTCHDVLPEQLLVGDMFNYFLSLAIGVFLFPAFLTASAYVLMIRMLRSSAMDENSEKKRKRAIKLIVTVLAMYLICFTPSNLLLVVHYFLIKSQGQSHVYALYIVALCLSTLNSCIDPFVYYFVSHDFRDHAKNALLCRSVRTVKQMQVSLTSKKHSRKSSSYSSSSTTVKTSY
Protocol: as §1, §2

PAR-1 = target: T3, PAR-1 (Homo sapiens, UniProt P25116); test: Calcium influx in PAR-1-expressing insect cells; conditions: AST 2 units/mL; trypsin, thrombin 0.1 to 10 units/mL; SFLLRNamide 10 to 100 μM
T3 construct: expressed in transfected cells; host or cells: Sf9 insect cells infected with recombinant baculovirus VL-PAR (pVL1393)
T3 sequence (P25116 22-425): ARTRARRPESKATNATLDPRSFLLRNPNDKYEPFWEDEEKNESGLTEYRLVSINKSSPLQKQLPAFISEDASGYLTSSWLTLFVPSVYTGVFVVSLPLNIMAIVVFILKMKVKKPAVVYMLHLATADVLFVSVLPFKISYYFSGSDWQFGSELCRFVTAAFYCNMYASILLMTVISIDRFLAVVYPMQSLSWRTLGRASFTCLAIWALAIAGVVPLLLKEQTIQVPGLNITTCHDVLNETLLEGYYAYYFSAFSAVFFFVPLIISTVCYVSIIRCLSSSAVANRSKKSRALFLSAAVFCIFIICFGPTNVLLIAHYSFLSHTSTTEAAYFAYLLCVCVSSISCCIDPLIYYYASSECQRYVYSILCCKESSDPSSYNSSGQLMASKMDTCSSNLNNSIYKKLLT
Protocol: The recovered infected cells (about 5×10^6 cells) were once washed with HEPES-Tyrode buffer solution-Ca^2+ (−) pH 7.4, and then suspended in 5 mL of HEPES-Tyrode buffer solution (containing Fura2-AM, 1 μg/mL) to load the Fura2-AM on the cells at 27° C. for 30 minutes. The suspension was centrifuged at 800 rpm at room temperature for 5 minutes to recover the cells. The cells were twice washed with HEPES-Tyrode buffer solution-Ca^2+ (−) pH 7.4 and then resuspended in 5 mL of HEPES-Tyrode buffer solution-Ca^2+ (−) pH 7.4. The cell suspension was mixed with 5 μL of 1M CaCl2 to give a final concentration of 1 mM CaCl2, and then incubated in a shaded state at room temperature for 5 minutes. The prepared Fura2-AM-loaded infected cells were dispensed into a 96 well plate in a volume of 100 μL/well, further subjected to the dispensation of HEPES-Tyrode buffer solution-C^2+ (+) pH 7.4 in a volume of 80 μL/well, and then assayed with a Fluorescence Drug Screening System (made by Hamamatsu Photonics Co.). Namely, [intensity of 500 nm fluorescent light due to 340 nm exciting light]/[intensity of 500 nm fluorescent light due to 380 nm exciting light] (reflecting the concentration of calcium in the cells) was assayed.

[1] = system: normal human airway epithelial cells; test: Calcium influx in normal human airway epithelial cells; conditions: AST 2 units/mL; trypsin 10 to 100 units/mL; SFLLRNamide 100 μM
Protocol: The Ca^2+ influx due to the AST was examined with confluent normal epithelial cells adhered to three 10 cm dishes (purchased from BioWhittaker Corp.). The cells were peeled with a 10 mM EDTA/HEPES-Tyrode buffer solution for 10 minutes, recovered by a centrifugal treatment at 800 rpm at room temperature for 5 minutes, and then resuspended in 5 mL of HEPES-Tyrode buffer solution-Ca^2+ (−) pH 7.4. The recovered cells (about 1.2×10^6 cells) were suspended in 5 mL of HEPES-Tyrode buffer solution (1 μg/mL, containing Fura2-AM) to load the Fura2-AM to the cells at 37° C. for one hour. The cells were recovered by a centrifugal treatment at 800 rpm at room temperature for 5 minutes, twice washed with HEPES-Tyrode buffer solution-Ca^2+ (−) pH 7.4, and then resuspended in […] of HEPES-Tyrode buffer solution-Ca^2+ (−) pH 7.4. The cell suspension was mixed with 5 μL of 1M CaCl2 to give a final concentration of 1 mM CaCl2, and then incubated in a shaded state at room temperature for 5 minutes. The prepared Fura2-AM-loaded infected cells were dispensed into a 96 well plate in a volume of 100 μL/well, further subjected to the dispensation of HEPES-Tyrode buffer solution-Ca^2+ (+) pH 7.4 in a volume of 80 μL/well, and then assayed with Fluorescence Drug Screening System (Hamamatsu Photonics Co.). […]

BEAS-2B = test: Calcium influx in airway epithelial cell strain BEAS-2B; conditions: AST 2 units/mL; trypsin 10 to 100 units/mL; SFLLRNamide 100 μM
Protocol: The Ca^2+ influx due to the AST was examined with respect to an airway epithelial cell strain BEAS-2B. The confluent cells adhered to six 10 cm dishes were used. The cells were peeled with a 10 mM EDTA/HEPES-Tyrode buffer solution for 10 minutes, recovered by a centrifugal treatment at 1,500 rpm at room temperature for 5 minutes, and then resuspended in 10 mL of HEPES-Tyrode buffer solution-Ca^2+ (−) pH 7.4. The recovered cells (about 1.1×10^7 cells) were suspended in 11 mL of HEPES-Tyrode buffer solution (1 μg/mL, containing Fura2-AM) to load the Fura2-AM at 37° C. for 30 minutes. The cells were recovered by a centrifugal treatment at 1,500 rpm at room temperature for 5 minutes, twice washed with HEPES-Tyrode buffer solution-Ca^2+ (−) pH 7.4, and then resuspended in 11 mL of HEPES-Tyrode buffer solution-Ca^2+ (−) pH 7.4. The cell suspension was mixed with […] of 1M CaCl2 to give a final concentration of 1 mM CaCl2, and then incubated in a shaded state at room temperature for 5 minutes. The prepared Fura2-AM-loaded infected cells were dispensed into a 96 well plate in a volume of 100 μL/well, further subjected to the dispensation of HEPES-Tyrode buffer solution-Ca^2+ (+) pH 7.4 in a volume of 80 μL/well, and then assayed with Fluorescence Drug Screening System (Hamamatsu Photonics Co.). […]

Measured: Ca2+ influx

B1: trypsin: trypsin originated from bovine pancreas (protein)
chain: IVGGYTCGANTVPYQVSLNSGYHFCGGSLINSQWVVSAAHCYKSGIQVRLGEDNINVVEGNEQFISASKSIVHPSYNSNTLNNDIMLIKLKSAASLNSRVASISLPTSCASAGTQCLISGWGNTKSSGTSYPDVLKCLKAPILSDSSCKSAYPGQITSNMFCAGYLEGGKDSCQGDSGGPVVCSGKLQGIVSWGSGCAQKNKPGVYTKVCNYVSWIKQTIASN
observed: PAR-4 | PAR-2 | PAR-1 | [1] | BEAS-2B
